In the nanobody polyreactivity screen of Harvey et al. (2022):

Test: yeast display, Sf9 membrane polyspecificity reagent, FACS + sequencing; frameworks hold sequencing errors
Method in brief: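 Nanobodies from a synthetic yeast display library (Saccharomyces cerevisiae BJ5465), induced 36–48 hours with galactose, were stained 1 hour at 4 °C with 10% biotinylated, detergent-solubilized Sf9 membrane reagent, enriched on streptavidin microbeads, then FACS-sorted. Anti-HA (expression) and streptavidin (reagent binding) fluorescence set low and high (top ~1%) gates. Polyreactivity labels come from the gate of origin. Genes were colony-PCR amplified, MiSeq 2 × 250 sequenced and filtered by CDR length.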

| Sequence | polyreactivity (PSR sort gate) |
| --- | --- |
| QVQLVESGGGLVQAGGSLRLSCAASGFIFSKNAMGWYRQAPGKERELVARITRRVGSTYYADSVKGRFTISRDNAKITVYLQMNSLKPEDTAVYYWAAVVHIQRSTRDYWGQGTQVTVSS | high polyreactivity |
| QVQLVESGGGLVQAGGSLRLSCAASGFIFSKYAMGWYRQAPGKERELVAAITFSGGSTYYADSVKGRFTISRDNAKNTVYLQMNSLKPEDTAVYYCNAEGSYPDVSPVLGYDYWGQGTQVTVSS | low polyreactivity |
| QVQLVESGGGLVQAGGSLRLSCAASGFIFSKYAMGWYRQAPGKERELVAAITSGGSTYYADSVKGRFTISRDNAKNTVYLQMNSLKPEDTAVYYCAADSYVPNLNYDYWGQGTQVNVSS | low polyreactivity |
| QVQLVESGGGLVQAGGSLRLSCAASGFIFSKYAMGWYRQAPGKERELVASISTSGGSTYYADSVKGRFTISRDNAKNTVYLQMNSLKPEDTAVYYCAVASRSHGYKRAYYYWGQGTQVTVSS | high polyreactivity |
| QVQLVESGGGLVQAGGSLRLSCAASGFIFSLYAMGWYRQAPGKERELVAAISKRGGSTNYADSVKGRFTISRDNAKNTVYLQMNSLKPEDTAVYYCAKARPGFLYDHWGQGTQVTVSS | high polyreactivity |
| QVQLVESGGGLVQAGGSLRLSCAASGFIFSLYAMGWYRQAPGKERELVGAITRSGGSTYYADSVKGRFTISRDNAKNTVYLQMNSLKAEDTAVYYCAVSACYHYNYWGQGTQVTVSS | high polyreactivity |
| QVQLVESGGGLVQAGGSLRLSCAASGFIFSNAMGWYRQAPGKERELVAAISRSGGSTYYADSVKGRFTISRDNAKNTVYLQMNSLKPEDTAVYYCGARSYPRSPVRYDYWGQGTQVTVSS | high polyreactivity |
| QVQLVESGGGLVQAGGSLRLSCAASGFIFSNNAMGWYRQAPGKERELVAVINGGGSTYYADSVKGRFTISRDNAKNTVYLQMNSLKPEDTAFYYCARKSWPKERRVDPGYDYWGQGTQVTVSS | low polyreactivity |
| QVQLVESGGGLVQAGGSLRLSCAASGFIFSPYDMGWYRQAPGKERELVAAISWRTGSTYYADSVKGRFTISRDNAKNTVYLQMNSLKPEDTAVYYCAARFIWSSYGRYDYWGQGTQVTVSS | high polyreactivity |
| QVQLVESGGGLVQAGGSLRLSCAASGFIFSQYTMGWYRQAPGKERELVAAISFSDSSTFYADSVKGRFTISRDNAKNTVYLQMNSLKPEDTAVYYCAAEWGYRQRYFYATGGYWGQGTQVTVSS | low polyreactivity |
| QVQLVESGGGLVQAGGSLRLSCAASGFIFSRNAMGWYRQAPGKERELVARISRSGGRTYYADSVKGRFTISRDNAKNTVYLLMNSLKPEDTAVYYCATDHVRQSPYDYWGQGTQVTVSS | high polyreactivity |
| QVQLVESGGGLVQAGGSLRLSCAASGFIFSRYAMGWYRQAPGKEREFVAANSWSGGRTYYADSVKGRFTISRDNAKNTVYLQMNSLKPEDTAVYFCAARGYYPARHGTGGYWGQGTQVTVSS | high polyreactivity |
| QVQLVESGGGLVQAGGSLRLSCAASGFIFSRYGMGWYRQAPGKERELVAAISRSGGSTYYADSVKGRFTISRDNAKNTVYLQMNSLKPEDTAVYYCATAYSWRNADWFAYSYDYWGQGTQVTVSS | low polyreactivity |
| QVQLVESGGGLVQAGGSLRLSCAASGFIFSRYVMGWYRQAPGKERELVAAISRGGSTYYADSVKGRFTISRDNAKNTVYLQMNSLKPEDTAVYYCAVRSTRFLIYYPPYDYWGQGTQVTVSS | high polyreactivity |
| QVQLVESGGGLVQAGGSLRLSCAASGFIFSSNAMGGYRQAPGTERELVATIDRDGGITYADSVKGRFTISRDNAKTTVYIQMNSLKPEDTEVYYCAADPSSYGRFTYDYWGQGTQVTVSS | low polyreactivity |
| QVQLVESGGGLVQAGGSLRLSCAASGFIFSSYAKGWYRQAPGKERELVAVITRSGRRTYYADSVKGRFTISRDNAKNTFYLQMNSLKPEDTAVYYCNATLPNEVAPNDYWGQGTQVTVSS | high polyreactivity |
